Our source for the Kd values is paper doi:10.1101/2020.08.02.233536.

Assay [1] has as its target His-tagged SARS-CoV RBD protein (binding studies) (SARS-CoV) (UniProt P59594). Description: BLI. (In general: Biolayer interferometry detects binding as a change in optical thickness at a sensor tip.)
The target in assay [2] is His-tagged SARS-CoV-2 RBD protein (binding studies) (SARS-CoV-2) (UniProt P0DTC2). The assay is described as follows: BLI.

Take COVA1–16 IgG1 antibody: the Kd was 125 nM in assay [1] and 0.2 nM in assay [2].
The like results for COVA1–16 Fab, His-tagged were, in that order, 405 nM and 46 nM.

Broadly, the Kd is the free concentration of one partner at which half of the binding sites on the other are occupied at equilibrium, for simple one-to-one binding. The low end stands for higher affinity, the high end for lower affinity.
